Data published in the supplement of paper PMC11246515.
± gives the standard deviation of the averaged measurements.

Test: total protein half-life in vivo (active degradation + dilution); higher = more stable protein
[1] = E. coli NCM3722 delta-clpP delta-lon delta-hslV, growth: N-lim chemostat, doubling time 6 h
[2] = E. coli NCM3722 delta-clpP, growth: N-lim chemostat, doubling time 6 h
[3] = E. coli NCM3722 delta-hslV, growth: N-lim chemostat, doubling time 6 h
[4] = E. coli NCM3722 delta-lon, growth: N-lim chemostat, doubling time 6 h
[5] = E. coli NCM3722 delta-smpB, growth: N-lim chemostat, doubling time 6 h
[6] = wild type E. coli NCM3722, growth: C-lim chemostat, doubling time 3 h
[7] = wild type E. coli NCM3722, growth: C-lim chemostat, doubling time 6 h
[8] = wild type E. coli NCM3722, growth: C-lim chemostat, doubling time 12 h
[9] = wild type E. coli NCM3722, growth: N-lim chemostat, doubling time 6 h
[10] = wild type E. coli NCM3722, growth: N-lim chemostat, doubling time 12 h
[11] = wild type E. coli NCM3722, growth: P-lim chemostat, doubling time 6 h
[12] = wild type E. coli NCM3722, growth: P-lim chemostat, doubling time 12 h

Sequence	total protein half-life in vivo [1]	total protein half-life in vivo [2]	total protein half-life in vivo [3]	total protein half-life in vivo [4]	total protein half-life in vivo [5]	total protein half-life in vivo [6]	total protein half-life in vivo [7]	total protein half-life in vivo [8]	total protein half-life in vivo [9]	total protein half-life in vivo [10]	total protein half-life in vivo [11]	total protein half-life in vivo [12]
MFDNLTDRLSRTLRNISGRGRLTEDNVKDTLREVRMALLEADVALPVVREFINRVKEKAVGHEVNKSLTPGQEFVKIVRNELVAAMGEENQTLNLAAQPPAVVLMAGLQGAGKTTSVGKLGKFLREKHKKKVLVVSADVYRPAAIKQLETLAEQVGVDFFPSDVGQKPVDIVNAALKEAKLKFYDVLLVDTAGRLHVDEAMMDEIKQVHASINPVETLFVVDAMTGQDAANTAKAFNEALPLTGVVLTKVDGDARGGAALSIRHITGKPIKFLGVGEKTEALEPFHPDRIASRILGMGDVLSLIEDIESKVDRAQAEKLASKLKKGDGFDLNDFLEQLRQMKNMGGMASLMGKLPGMGQIPDNVKSQMDDKVLVRMEAIINSMTMKERAKPEIIKGSRKRRIAAGCGMQVQDVNRLLKQFDDMQRMMKKMKKGGMAKMMRSMKGMMPPGFPGR [P0AGD7]	5.51 ± 0.064 h	5.31 ± 0.54 h	4.4 ± 0.073 h	5.49 ± 0.42 h	4.58 ± 0.087 h	2.85 ± 0.033 h	4.898 ± 0.04 h	8.739 ± 0.073 h	4.28 ± 0.099 h	7.9 ± 0.14 h	4.6 ± 0.13 h	9.883 ± 0.071 h
MFDSLAKAGKYLGQAAKLMIGMPDYDNYVEHMRVNHPDQTPMTYEEFFRERQDARYGGKGGARCC [P0AAS9]	–	–	–	–	–	1.43 h	1.49 ± 0.45 h	1.47 h	–	–	–	–
MFEYLPELMKGLHTSLTLTVASLIVALILALIFTIILTLKTPVLVWLVRGYITLFTGTPLLVQIFLIYYGPGQFPTLQEYPALWHLLSEPWLCALIALSLNSAAYTTQLFYGAIRAIPEGQWQSCSALGMSKKDTLAILLPYAFKRSLSSYSNEVVLVFKSTSLAYTITLMEVMGYSQLLYGRTYDVMVFGAAGIIYLVVNGLLTLMMRLIERKALAFERRN [P0AE30]	5.31 h	6.27 h	–	5.01 h	–	–	5.55 h	–	5.22 h	–	6.32 h	11 h
MFHCPLCQHAAHARTSRYITDTTKERYHQCQNVNCSATFITYESVQRYIVKPGEVHVVRPHPLPSGQQIMWM	5.58 ± 1.3 h	–	–	–	–	–	–	–	–	–	–	–
MFHRLWTLIRKELQSLLREPQTRAILILPVLIQVILFPFAATLEVTNATIAIYDEDNGEHSVELTQRFARASAFTHVLLLKSPQEIRPTIDTQKALLLVRFPADFSRKLDTFQTAPLQLILDGRNSNSAQIAANYLQQIVKNYQQELLEGKPKPNNSELVVRNWYNPNLDYKWFVVPSLIAMITTIGVMIVTSLSVAREREQGTLDQLLVSPLTTWQIFIGKAVPALIVATFQATIVLAIGIWAYQIPFAGSLALFYFTMVIYGLSLVGFGLLISSLCSTQQQAFIGVFVFMMPAILLSGYVSPVENMPVWLQNLTWINPIRHFTDITKQIYLKDASLDIVWNSLWPLLVITATTGSAAYAMFRRKVM [P0AFP9]	–	6.75 ± 1.4 h	> 8 h	7.11 h	5.25 ± 0.36 h	3.51 h	6.05 ± 0.27 h	12.97 ± 0.071 h	6.33 ± 0.16 h	12.1 ± 1.1 h	6.38 h	–
MFIGFDYGTANCSVAVMRDGKPHLLKMENDSTLLPSMLCAPTREAVSEWLYRHHDVPADDDETQALLRRAIRYNREEDIDVTAKSVQFGLSSLAQYIDDPEEVWFVKSPKSFLGASGLKPQQVALFEDLVCAMMLHIRQQAQAQLPEAITQAVIGRPINFQGLGGDEANTQAQGILERAAKRAGFRDVVFQYEPVAAGLDYEATLQEEKRVLVVDIGGGTTDCSLLLMGPQWRSRLDREASLLGHSGCRIGGNDLDIALAFKNLMPLLGMGGETEKGIALPILPWWNAVAINDVPAQSDFYSSANGRLLNDLVRDAREPEKVALLQKVWRQRLSYRLVRSAEECKIALSSVAETRASLPFISNELATLISQRGLESALSQPLTRILEQVQLALDNAQEKPDVIYLTGGSARSPLIKKALAEQLPGIPIAGGDDFGSVTAGLARWAEVVFR	4.24 ± 0.21 h	3.46 ± 0.21 h	3.42 ± 0.99 h	3.061 ± 0.019 h	2.69 ± 0.13 h	2.8 ± 0.11 h	5.13 ± 0.5 h	9.46 ± 2.2 h	3.1 h	3.87 h	4.93 ± 0.058 h	7.96 ± 0.29 h
MFIRAPNFGRKLLLTCIVAGVMIAILVSCLQFLVAWHKHEVKYDTLITDVQKYLDTYFADLKSTTDRLQPLTLDTCQQANPELTARAAFSMNVRTFVLVKDKKTFCSSATGEMDIPLNELIPALDINKNVDMAILPGTPMVPNKPAIVIWYRNPLLKNSGVFAALNLNLTPSLFYSSRQEDYDGVALIIGNTALSTFSSRLMNVNELTDMPVRETKIAGIPLTVRLYADDWTWNDVWYAFLLGGMSGTVVGLLCYYLMSVRMRPGREIMTAIKREQFYVAYQPVVDTQALRVTGLEVLLRWRHPVAGEIPPDAFINFAESQKMIVPLTQHLFELIARDAAELEKVLPVGVKFGINIAPDHLHSESFKADIQKLLTSLPAHHFQIVLEITERDMLKEQEATQLFAWLHSVGVEIAIDDFGTGHSALIYLERFTLDYLKIDRGFINAIGTETITSPVLDAVLTLAKRLNMLTVAEGVETPEQARWLSERGVNFMQGYWISRPLPLDDFVRWLKKPYTPQW	6.645 ± 0.021 h	6.81 ± 0.3 h	6.17 ± 0.16 h	6.55 ± 1 h	5.84 ± 0.17 h	–	5.92 ± 1.2 h	10.5 ± 0.13 h	5.91 ± 0.13 h	11.2 ± 0.95 h	5.7999 ± 0.0026 h	10.4 ± 0.3 h
MFKFLVLTLGIISCQAYAEDTVIVNDHDISAIKDCWQKNSDDDTDVNVIKSCLRQEYNLVDAQLNKAYGEAYRYIEQVPRTGVKKPDTEQLNLLKKSQRAWLDFRDKECELILSNEDVQDLSDPYSESEWLSCMIIQTNTRTRQLQLYRNSEDFYPSPLTRG	–	–	6.44 h	–	–	–	–	–	–	–	–	–
MFKKGLLALALVFSLPVFAAEHWIDVRVPEQYQQEHVQGAINIPLKEVKERIATAVPDKNDTVKVYCNAGRQSGQAKEILSEMGYTHVENAGGLKDIAMPKVKG	–	–	–	2.7 ± 0.26 h	2.61 h	1.97 ± 0.051 h	2.89 h	3.42 ± 0.39 h	–	–	–	3.19 h
MFKPELLSPAGTLKNMRYAFAYGADAVYAGQPRYSLRVRNNEFNHENLQLGINEAHALGKKFYVVVNIAPHNAKLKTFIRDLKPVVEMGPDALIMSDPGLIMLVREHFPEMPIHLSVQANAVNWATVKFWQQMGLTRVILSRELSLEEIEEIRNQVPDMEIEIFVHGALCMAYSGRCLLSGYINKRDPNQGTCTNACRWEYNVQEGKEDDVGNIVHKYEPIPVQNVEPTLGIGAPTDKVFMIEEAQRPGEYMTAFEDEHGTYIMNSKDLRAIAHVERLTKMGVHSLKIEGRTKSFYYCARTAQVYRKAIDDAAAGKPFDTSLLETLEGLAHRGYTEGFLRRHTHDDYQNYEYGYSVSDRQQFVGEFTGERKGDLAAVAVKNKFSVGDSLELMTPQGNINFTLEHMENAKGEAMPIAPGDGYTVWLPVPQDLELNYALLMRNFSGETTRNPHGK	2.98 ± 0.19 h	1.94 ± 0.45 h	1.96 ± 0.29 h	2.01 ± 0.14 h	1.77 ± 0.092 h	2.77 ± 0.029 h	3.68 ± 0.062 h	5.83 ± 0.49 h	1.91 ± 0.17 h	2.5 ± 0.0042 h	4.1 ± 0.069 h	7.89 ± 0.33 h
MFKRRYVTLLPLFVLLAACSSKPKPTETDTTTGTPSGGFLLEPQHNVMQMGGDFANNPNAQQFIDKMVNKHGFDRQQLQEILSQAKRLDSVLRLMDNQAPTTSVKPPSGPNGAWLRYRKKFITPDNVQNGVVFWNQYEDALNRAWQVYGVPPEIIVGIIGVETRWGRVMGKTRILDALATLSFNYPRRAEYFSGELETFLLMARDEQDDPLNLKGSFAGAMGYGQFMPSSYKQYAVDFSGDGHINLWDPVDAIGSVANYFKAHGWVKGDQVAVMANGQAPGLPNGFKTKYSISQLAAAGLTPQQPLGNHQQASLLRLDVGTGYQYWYGLPNFYTITRYNHSTHYAMAVWQLGQAVALARVQ	5.38 ± 0.079 h	5.65 ± 2 h	–	–	5.5 ± 0.089 h	3.61 h	–	–	5.55 ± 0.14 h	10.8 h	5.1 h	> 16 h
MFNEVHSIHGHTLLLITKSSLQATALLQHLKQSLAITGKLHNIQRSLDDISSGSIILLDMMEADKKLIHYWQDTLSRKNNNIKILLLNTPEDYPYRDIENWPHINGVFYSMEDQERVVNGLQGVLRGECYFTQKLASYLITHSGNYRYNSTESALLTHREKEILNKLRIGASNNEIARSLFISENTVKTHLYNLFKKIAVKNRTQAVSWANDNLRR	–	1.72 ± 0.18 h	0.584 h	–	0.772 h	–	–	–	0.875 h	1.84 h	–	1.48 ± 0.36 h
MFNSDNLRLDGKCAIITGAGAGIGKEIAITFATAGASVVVSDINADAANHVVDEIQQLGGQAFACRCDITSEQELSALADFAISKLGKVDILVNNAGGGGPKPFDMPMADFRRAYELNVFSFFHLSQLVAPEMEKNGGGVILTITSMAAENKNINMTSYASSKAAASHLVRNMAFDLGEKNIRVNGIAPGAILTDALKSVITPEIEQKMLQHTPIRRLGQPQDIANAALFLCSPAASWVSGQILTVSGGGVQELN [P0AET8]	4.91 ± 0.11 h	4.39 ± 0.73 h	4.72 ± 0.18 h	5.48 ± 0.66 h	4.27 ± 0.21 h	3.53 ± 0.6 h	5.51 ± 1.1 h	10.2 ± 1.2 h	4.57 ± 0.14 h	7.309 ± 0.022 h	5.64 ± 0.42 h	11.8 ± 0.3 h
